Source: paper PMC3861479, “LipL41, a Hemin Binding Protein from Leptospira santarosai serovar Shermani” (PLoS ONE, 2013)

Experiments:
[1] = target: the molecule itself; assay: negative-stain transmission electron microscopy; 0.1 mg/ml LipL41 on a glow-discharged copper grid, 2% uranyl acetate; class averages with EMAN2
[2] = target: the molecule itself; assay: SEC + AUC; LipL41-C100 in solution; data not shown

Protein | binding result [1] | further results
LipL41 C140A/C220A (natural protein, also called cysteine double mutant; HRM-mutated LipL41; source: E. coli, expression and purification similar to that of the wildtype) AATVDVEYPVFPKDKEGRALQKFLGTIRNVGLAVEPPKKSLWEAIFGEGSSFIDQMPSKVFEAFDKESYYKLTDLSKRADILNEATLSLTGITKSRAKIGNLIGAEAILYIGYQKPYTEASTENKIDAVAAGIKVAGFVASAATGKDVNTGNDPVSKPTGVRMMLIPLDATLIKVETGEVKKAVVSSPAKIFNSVGNLEAPSILDSFGQGLDEAAAYIKGRLSPIVKTERIKVFVKDEDEEVKELLQEGYEEIVGETPSFKKAKEAWEKADKKAKGQSWGAKANLATYYFSIGDFEKSIKLYEEAMKLKDADKSYLRELRKRVEATFAVDESNAK | binds | 
LipL41 C140A (natural protein, also called HRM-mutated LipL41; source: E. coli, expression and purification similar to that of the wildtype) AATVDVEYPVFPKDKEGRALQKFLGTIRNVGLAVEPPKKSLWEAIFGEGSSFIDQMPSKVFEAFDKESYYKLTDLSKRADILNEATLSLTGITKSRAKIGNLIGAEAILYIGYQKPYTEASTENKIDAVAAGIKVAGFVASAATGKDVNTGNDPVSKPTGVRMMLIPLDATLIKVETGEVKKAVVSSPAKIFNSVGNLECPSILDSFGQGLDEAAAYIKGRLSPIVKTERIKVFVKDEDEEVKELLQEGYEEIVGETPSFKKAKEAWEKADKKAKGQSWGAKANLATYYFSIGDFEKSIKLYEEAMKLKDADKSYLRELRKRVEATFAVDESNAK | binds | 
LipL41 C220A (natural protein, also called HRM-mutated LipL41; source: E. coli, expression and purification similar to that of the wildtype) AATVDVEYPVFPKDKEGRALQKFLGTIRNVGLAVEPPKKSLWEAIFGEGSSFIDQMPSKVFEAFDKESYYKLTDLSKRADILNEATLSLTGITKSRAKIGNLIGAEAILYIGYQKPYTECSTENKIDAVAAGIKVAGFVASAATGKDVNTGNDPVSKPTGVRMMLIPLDATLIKVETGEVKKAVVSSPAKIFNSVGNLEAPSILDSFGQGLDEAAAYIKGRLSPIVKTERIKVFVKDEDEEVKELLQEGYEEIVGETPSFKKAKEAWEKADKKAKGQSWGAKANLATYYFSIGDFEKSIKLYEEAMKLKDADKSYLRELRKRVEATFAVDESNAK | binds | 
recombinant LipL41 (Ala21 - Lys355) with an N-terminal His6-tag (natural protein, also called LipL41 wildtype; pRSET-LipL41; source: E. coli BL21(DE3), purified (Ni-NTA); copies: 36) AATVDVEYPVFPKDKEGRALQKFLGTIRNVGLAVEPPKKSLWEAIFGEGSSFIDQMPSKVFEAFDKESYYKLTDLSKRADILNEATLSLTGITKSRAKIGNLIGAEAILYIGYQKPYTECSTENKIDAVAAGIKVAGFVASAATGKDVNTGNDPVSKPTGVRMMLIPLDATLIKVETGEVKKAVVSSPAKIFNSVGNLECPSILDSFGQGLDEAAAYIKGRLSPIVKTERIKVFVKDEDEEVKELLQEGYEEIVGETPSFKKAKEAWEKADKKAKGQSWGAKANLATYYFSIGDFEKSIKLYEEAMKLKDADKSYLRELRKRVEATFAVDESNAK |  | stoichiometry N [1]: 36
LipL41-C100 with a TPR-containing fragment of residues 256-355 (domain or fragment, source: E. coli, expression and purification similar to that of the wildtype) KDEDEEVKELLQEGYEEIVGETPSFKKAKEAWEKADKKAKGQSWGAKANLATYYFSIGDFEKSIKLYEEAMKLKDADKSYLRELRKRVEATFAVDESNAK |  | stoichiometry N [2]: 2
